The text below walks through data of patent publication US20190338002A1 (Pieris, published 2019).

The target of test [1] is T1, human beta CGRP (SEQ ID NO: 81) (human, not fully specified).
T1 construct: also called human βCGRP; hβCGRP
T1 peptide: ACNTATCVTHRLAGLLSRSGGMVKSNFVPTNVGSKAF
Nature of the test: SPR Biacore 37 °C, mutein captured as ligand, hb CGRP (1-37) injected, 1:1 fit; repeat run 130208_NAN-DS-047 (not the run of Table 2) [contd]. As to the method:
(§1) The Biotin CAPture Kit (GE Healthcare) was used to immobilize biotinylated lipocalin muteins to a chip surface. Muteins were biotinylated using standard NHS chemistry. Undiluted Biotin CAPture Reagent (streptavidin conjugated with ss-DNA oligo) was captured on a Sensor Chip CAP with the pre-immobilized complementary ss-DNA oligo. Thereafter, biotinylated muteins at 1 μg/mL were applied for 300 s at a flow rate of 5 μL/min.
(§2) CGRP species were applied in three concentrations of 30 nM, 3 nM and 0.3 nM at a flow rate of 30 μL/min or in a single concentration of 25 nM per cycle as shown in FIG. 2. The dilutions were injected with association times of 180 s and dissociation times of 5400 sec to obtain ka and kd information. Regeneration of the chip surface was achieved by injecting 6 M Guanidinium-HCl+0.25 M NaOH (120 s) with a flow rate of 10 μL/min. Injection of regeneration solutions was followed by an extra wash step with HBS-EP+(1×; BR-1006-69; GE Healthcare) running buffer and a stabilization period of 120 s.
(§3) The data were double-referenced by subtraction of the corresponding signals measured for the control channel (loaded with Biotin CAPture reagent only) and by subtraction of buffer injections from the binding responses. Association rate constant ka and dissociation rate constant kd for the binding reaction were determined using Biacore T200 Evaluation Software V2.0 for data processing and kinetic fitting. The data were globally fit with 1:1 binding model.

The target in test [2] is T2, human alpha CGRP (SEQ ID NO: 80) (human, not fully specified).
T2 peptide: T1 peptide with N3D, M22V, S25N
Nature of the test: cell-based or functional assay.

Test [3] has as its target T3, rat alpha CGRP (SEQ ID NO: 82) (rat).
T3 peptide: T1 peptide with A1S, M22V, S25D, K35E
The experiment in a line: cell-based or functional assay.

Test [4] concerns the target T4, rat beta CGRP (SEQ ID NO: 83) (rat, not fully specified).
T4 peptide: T1 peptide with A1S, M22V, S25D
Nature of the test: cell-based or functional assay.

The target in test [5] is T1, human beta CGRP (SEQ ID NO: 81). Nature of the test: cell-based or functional assay.
Test [6] has as its target T4, rat beta CGRP (SEQ ID NO: 83). The experiment in a line: SPR Biacore 37 °C, mutein captured as ligand, rb CGRP sample PL1830 injected, 1:1 fit; repeat run 130903_NAN-DS-058 (not the run of Table 2) [contd]. (In SPR one partner is held on a chip, and binding of the other changes the refractive index at the surface.)
In test [7] the target is T3, rat alpha CGRP (SEQ ID NO: 82). Nature of the test: SPR Biacore 37 °C, mutein captured as ligand, ra CGRP (1-37) injected, 1:1 fit; repeat run 130208_NAN-DS-047 (not the run of Table 2) [contd]. As to the method:
as §1, §2, §3

For test [8], the target named is T2, human alpha CGRP (SEQ ID NO: 80). The experiment in a line: SPR Biacore 37 °C, mutein captured as ligand, sample PL1827 (ha CGRP) injected, 1:1 fit; repeat run 130903_NAN-DS-058 (not the run of Table 2) [contd]. As to the method: as §1, §2, §3
Test [9] has as its target T4, rat beta CGRP (SEQ ID NO: 83). The experiment in a line: SPR Biacore 37 °C, mutein captured as ligand, rb CGRP (1-37) injected, 1:1 fit; repeat run 130208_NAN-DS-047 (not the run of Table 2) [contd]. As to the method:
as §1, §2, §3

Test [10] has the same target. The experiment in a line: SPR Biacore 37 °C, mutein captured as ligand, sample PL1830 (rb CGRP) injected, 1:1 fit; repeat run 130903_NAN-DS-058 (not the run of Table 2) [contd]. As to the method:
as §1
(§4) CGRP species were applied in three concentrations of 30 nM, 3 nM and 0.3 nM at a flow rate of 30 μL/min or in a single concentration of 25 nM per cycle as shown in FIG. 2. The dilutions were injected with association times of 180 s and dissociation times of 5400 sec to obtain ka and kd information. Regeneration of the chip surface was achieved by injecting 6 M Guanidinium-HCl+0.25 M NaOH (120 s) with a flow rate of 10 μL/min. […]
(§5) The data were double-referenced by subtraction of the corresponding signals measured for the control channel (loaded with Biotin CAPture reagent only) and by subtraction of buffer injections from the binding responses. Association rate constant ka and dissociation rate constant kd for the binding reaction were determined using Biacore T200 Evaluation Software V2.0 for data processing and kinetic fitting. […]

Test [11] addresses T2, human alpha CGRP (SEQ ID NO: 80). The experiment in a line: SPR Biacore 37 °C, mutein captured as ligand, ha CGRP (1-37) injected, 1:1 fit; repeat run 130208_NAN-DS-047 (not the run of Table 2) [contd]. As to the method: as §1, §2, §3
The target is the same in test [12]. Nature of the test: SPR, 37 C, mutein captured, CGRP analyte. The essentials:
(§6)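 Biotinylated lipocalin muteins were captured on streptavidin-oligo CAP chip, and CGRP was injected at 30, 3 and 0.3 nM or at a single 25 nM at 37 °C (180 s association, 5400 s dissociation) in HBS-EP+. Double-referenced sensorgrams were globally fit to a 1:1 model for ka and kd.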

For test [13], the target named is T3, rat alpha CGRP (SEQ ID NO: 82). Nature of the test: SPR, 37 C, mutein captured, CGRP analyte. The essentials:
as §6

Test [14] concerns the target T4, rat beta CGRP (SEQ ID NO: 83). Nature of the test: SPR, 37 C, mutein captured, CGRP analyte. The essentials:
as §6

The target of test [15] is T1, human beta CGRP (SEQ ID NO: 81). The experiment in a line: SPR, 37 C, mutein captured, CGRP analyte. The essentials:
as §6

Test [16] has the same target. The experiment in a line: SPR Biacore 37 °C, mutein captured as ligand, sample PL1828 (hb CGRP) injected, 1:1 fit; repeat run 130903_NAN-DS-058 (not the run of Table 2) [contd]. How it is done: as §1, §4, §5
Test [17] addresses T3, rat alpha CGRP (SEQ ID NO: 82). Nature of the test: SPR Biacore 37 °C, mutein captured as ligand, sample PL1829 (ra CGRP) injected, 1:1 fit; repeat run 130903_NAN-DS-058 (not the run of Table 2) [contd]. As to the method:
as §1, §4, §5

Test [18] concerns the target T4, rat beta CGRP (SEQ ID NO: 83). The experiment in a line: SPR Biacore 37 °C, protein captured as ligand, rb CGRP (1-37) injected, 1:1 fit of a flat sensorgram; run 130301_NAN-DS-049. How it is done: as §1, §4, §5
Test [19] has as its target T1, human beta CGRP (SEQ ID NO: 81). The experiment in a line: SPR Biacore 37 °C, protein captured as ligand, hb CGRP (1-37) injected, 1:1 fit of a flat sensorgram; run 130301_NAN-DS-049. How it is done:
as §1, §4, §5

Test [20] shares this target. The experiment in a line: SPR Biacore 37 °C, protein captured as ligand, hb CGRP (1-37) injected, 1:1 fit of a flat sensorgram; run 130208_NAN-DS-047 [contd]. How it is done:
as §1, §4, §5

In test [21] the target is T2, human alpha CGRP (SEQ ID NO: 80). The experiment in a line: SPR Biacore 37 °C, protein captured as ligand, ha CGRP (1-37) injected, 1:1 fit of a flat sensorgram; run 130301_NAN-DS-049. How it is done:
as §1, §4, §5

Test [22] has the same target. Nature of the test: SPR Biacore 37 °C, protein captured as ligand, ha CGRP (1-37) injected, 1:1 fit of a flat sensorgram; run 130208_NAN-DS-047 [contd]. How it is done: as §1, §4, §5
Target sequence in this assay (peptide, as listed by the source): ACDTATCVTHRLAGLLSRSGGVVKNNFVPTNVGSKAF
The target in test [23] is T3, rat alpha CGRP (SEQ ID NO: 82). The experiment in a line: SPR Biacore 37 °C, protein captured as ligand, ra CGRP (1-37) injected, 1:1 fit of a flat sensorgram; run 130301_NAN-DS-049. As to the method:
as §1, §4, §5

The target of test [24] is T4, rat beta CGRP (SEQ ID NO: 83). The experiment in a line: SPR Biacore 37 °C, protein captured as ligand, rb CGRP (1-37) injected, 1:1 fit of a flat sensorgram; run 130208_NAN-DS-047 [contd]. As to the method:
as §1, §4, §5

The target in test [25] is T3, rat alpha CGRP (SEQ ID NO: 82). The experiment in a line: SPR Biacore 37 °C, protein captured as ligand, ra CGRP (1-37) injected, 1:1 fit of a flat sensorgram; run 130208_NAN-DS-047 [contd]. How it is done:
as §1, §4, §5

Numbering of substitutions follows the chain as printed.

B1: lipocalin mutein SEQ ID NO: 11 (designed binder)
chain: QDSTSDLIPAPPLSKVPLQQNFQDNQFHGKWYVVGWAGNTLLREDKDPIKMQAIIYELKEDRSYNVTWVYFSEKKCNYHIETFVPGSQPGEFTLGTIKSYPGETPILVRVVSTNYNQHAMVFFKGVNQNREIFEIILYGRTKELTNELKENFIRFSKSLGLPENHIVFPVPIDQCIDGSAWSHPQFEK
notes: biotinylated by NHS chemistry for capture in SPR
For the molecule B1, the koff (in general, the first-order rate constant of dissociation) in test [1] was determined as 4.61e-05 s⁻¹; in [6], 6.38e-05 s⁻¹; in [7], 7.72e-05 s⁻¹; in test [8], 6.55e-05 s⁻¹; in test [9], 5.56e-05 s⁻¹; in test [11] it was 5.31e-05 s⁻¹. The koff in [12] was 4.55e-05 s⁻¹; in test [13], 7.6e-05 s⁻¹; in test [14], 7.3e-05 s⁻¹; in test [15], 5.63e-05 s⁻¹; in [16], 3.73e-05 s⁻¹; in test [17], 8.08e-05 s⁻¹. Moreover, the kon (usually a measure of how fast the partners come together) in test [1] amounted to 4.14e+06 M⁻¹ s⁻¹; in [7], 867000 M⁻¹ s⁻¹; in test [8], 1.76e+06 M⁻¹ s⁻¹; in test [9], 969000 M⁻¹ s⁻¹; in test [10], 1.75e+06 M⁻¹ s⁻¹; in test [11] it was 2.02e+06 M⁻¹ s⁻¹. Moreover, the kon in [12] turned out to be 3.08e+06 M⁻¹ s⁻¹; in test [13], 984000 M⁻¹ s⁻¹; in [14] it was 1.74e+06 M⁻¹ s⁻¹; in [15] it was 7.91e+06 M⁻¹ s⁻¹; in test [16], 2.41e+06 M⁻¹ s⁻¹; in test [17], 1.58e+06 M⁻¹ s⁻¹. Besides, the results for the “IC50, CGRP-induced cAMP production, SK-N-MC cells” value in test [2] and in test [5] were 0.11 nM and 0.22 nM, respectively. The entries for the “IC50, CGRP-induced cAMP production, L6 cells” value in test [3] and in test [4] were 0.08 nM and 0.06 nM, respectively. The Kd – broadly, the constant that tells how readily two partners part at equilibrium – was determined as 0.015 nM in test [12], 0.08 nM in test [13], 0.042 nM in test [14] and 7 pM in test [15].

B2: hNGAL wildtype (SEQ ID NO:1) (other)
chain: QDSTSDLIPAPPLSKVPLQQNFQDNQFHGKWYVVGLAGNAILREDKDPQKMYATIYELKEDKSYNVTSVLFRKKKCDYWIRTFVPGSQPGEFTLGNIKSYPGLTSYLVRVVSTNYNQHAMVFFKKVSQNREYFKITLYGRTKELTSELKENFIRFSKSLGLPENHIVFPVPIDQCIDG
notes: also called human lipocalin 2; human Lcn 2
Take B2: the koff stood at 0.00233 s⁻¹ in test [18]; 0.0185 s⁻¹ in test [19]; 0.000159 s⁻¹ in test [20]; 0.00221 s⁻¹ in test [21]; 0.00234 s⁻¹ in [22]; 0.00105 s⁻¹ in [23]. Besides, the koff was determined as 0.00414 s⁻¹ in [24] and 0.00259 s⁻¹ in test [25]. Also, the kon amounted to 1.62e+06 M⁻¹ s⁻¹ in [18]; 347000 M⁻¹ s⁻¹ in [20]; 1200 M⁻¹ s⁻¹ in [21]; 342000 M⁻¹ s⁻¹ in test [22]; 970000 M⁻¹ s⁻¹ in [23]; 1.1e+06 M⁻¹ s⁻¹ in test [24]. The molecule further yielded a kon in test [25] of 1640 M⁻¹ s⁻¹.
